Laboratory results: US20200262913A1 (ZymoGenetics, published 2020)
Changes are numbered by the printed parent chain. Names and notes keep the numbering of the source.

T1: recombinant human IL-31 (hIL-31, BHK produced, A1277F, zcytor17lig CEE) (human, UniProt Q6EBC2 24-164)
T1 construct: also called recombinant hIL-31
T1 sequence: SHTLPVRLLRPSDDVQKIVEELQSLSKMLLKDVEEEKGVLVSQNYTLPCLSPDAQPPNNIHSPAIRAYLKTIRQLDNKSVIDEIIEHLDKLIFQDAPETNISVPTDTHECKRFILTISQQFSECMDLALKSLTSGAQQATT

T2: recombinant human IL-31 (as used in the NHK STAT3 phosphorylation assay of Example 5) (human, UniProt Q6EBC2 24-164, limits assumed)
T2 sequence: T1 sequence

B1: humanized 292.12.3.1 construct clone 26 (12VH1-gly + HC(fback) + LC(F71Y)) (antibody, human IgG4, V domains shown)
VH: QVQLVQSGAEVKKPGASVKVSCKASGYTLTRYWMQWVRQAPGQGLEWMGAIYPGDGDTRYSQKFQGRVTLTADKSISTAYMELSSLRSEDTAVYYCAFPDGYYAAPYGMDYWGQGTLVTVSS
VL: DIQMTQSPSSLSASVGDRVTITCRASGNIHNYLAWYQQKPGKVPKLLIYNAKTLADGVPSRFSGSGSGTDYTLTISSLQPEDVATYYCQHFWSTPWTFGQGTKVEIKR
B2: humanized 292.12.3.1 construct clone 13 (12VH1-gly + HC(F29L, M69L, R71A, T73K, V78A) + LC(fback)) (antibody, human IgG4, V domains shown)
VH: B1 VH with F98R
VL: B1 VL with G66R, G68E, D70Q, T72S
B3: humanized 292.12.3.1 construct clone 9 (12VH1-gly + HC(fback)) (antibody, human IgG4, V domains shown)
VH: B1 VH
VL: B1 VL with Y71F
notes: also called 09
B4: humanized 292.12.3.1 construct clone 16 (12VH1-gly + HC(fback) + LC(G66R, G68E, D70Q, T72S)) (antibody, human IgG4, V domains shown)
VH: B1 VH
VL: B1 VL with G66R, G68E, D70Q, Y71F, T72S
B5: humanized 292.12.3.1 construct clone 25 (12VH1-gly + HC(F29L, R94F) + LC(F71Y)) (antibody, human IgG4, V domains shown)
VH: B1 VH with L70M, A72R, K74T, A79V
VL: B1 VL
B6: humanized 292.12.3.1 construct clone 27 (12VH1-gly + HC(F29L, M69L, R94F) + LC(F71Y)) (antibody, human IgG4, V domains shown)
VH: B1 VH with A72R, K74T, A79V
VL: B1 VL
B7: humanized 292.12.3.1 construct clone 30 (12VH1-gly + HC(F29L, V78A, R94F) + LC(F71Y)) (antibody, human IgG4, V domains shown)
VH: B1 VH with L70M, A72R, K74T
VL: B1 VL
B8: humanized 292.12.3.1 construct clone 29 (12VH1-gly + HC(F29L, T73K, R94F) + LC(F71Y)) (antibody, human IgG4, V domains shown)
VH: B1 VH with L70M, A72R, A79V
VL: B1 VL
B9: humanized 292.12.3.1 construct clone 28 (12VH1-gly + HC(F29L, R71A, R94F) + LC(F71Y)) (antibody, human IgG4, V domains shown)
VH: B1 VH with L70M, K74T, A79V
VL: B1 VL
B10: humanized 292.12.3.1 construct clone 31 (12VH1-gly + HC(F29L, M69L, R71A, V78A, R94F) + LC(F71Y)) (antibody, human IgG4, V domains shown)
VH: B1 VH with K74T
VL: B1 VL
B11: humanized 292.12.3.1 construct clone 32 (12VH1-gly + HC(F29L, R71A, V78A, R94F) + LC(F71Y)) (antibody, human IgG4, V domains shown)
VH: B1 VH with L70M, K74T
VL: B1 VL
B12: humanized 292.12.3.1 construct clone 17 (12VH1-gly + HC(fback) + LC(D70Q, F71Y, T72S)) (antibody, human IgG4, V domains shown)
VH: B1 VH
VL: B1 VL with D70Q, T72S
B13: humanized 292.12.3.1 construct clone 18 (12VH1-gly + HC(fback) + LC(G66R, G68E, F71Y)) (antibody, human IgG4, V domains shown)
VH: B1 VH
VL: B1 VL with G66R, G68E

How the values were obtained:
[1] = target: T1, recombinant human IL-31 (hIL-31, BHK …); assay: SPR (Biacore), against parent 292.12.3.1
Method: (§1) The purified monoclonal antibodies were immobilized in individual flow cells on a CM5 type sensor chip. Immobilizations were performed using a standard amine coupling procedure, aiming for an immobilization level of 500 Resonance Units (RU). The antibodies were diluted to 1-5 ug/ml in 10 mM NaAc pH 4.5.
(§2) HPS-EP pH 7.4 (10 mM HEPES, 150 mM NaCl, 3 mM EDTA and 0.005% Polysorbat P20) was used as running buffer, and diluents for the recombinant hIL-31 (hIL-31, BHK produced, A1277F, zcytor17lig CEE). The hIL-31 was tested in a 3-fold dilution series from 333.3 nM to 1.4 nM. Association (injection) was 4 min., followed by a 20 min. dissociation (wash) period. Flow rate was 50 ul/min. Experiments were performed at 25OC. Regeneration of the surface was accomplished by injection of 30 sec. pulse of 10 mM Glycin-HCl pH 1.8 or 1M formic acid, at a 30 ul/min flow rate. Detection in all flow cells simultaneously. Flow cell #1 contained no immobilized antibody, and was used for subtraction of background and bulk.
(§3) The kinetic parameters were calculated by global fitting of the data using a 1:1 langmuir binding model. Data was inspected for mass-transport limitations prior to calculation of the kinetic parameters. In some experiments the Rmax was fitted locally, and the RI constant at 0.

[2] = target: T1, recombinant human IL-31 (hIL-31, BHK …); assay: SPR (Biacore), mAb amine-coupled to CM5 chip, hIL-31 injected
Method: as §1, §2, §3

[3] = target: T2, recombinant human IL-31 (as used in the …); assay: cell-based or functional assay
[4] = target: recombinant human IL-31 (C108S), produced in E. coli by ZymoGenetics, MW 18 kDa (human), Q6EBC2; assay: cell-based or functional assay

| Binder | Relative potency loss (KD) [1] | Kd [2] | koff [2] | kon [2] | IC50, IL-31-induced STAT3 phosphorylation in NHK, Exp 8 [3] | IC50, IL-31-induced STAT3 phosphorylation in NHK, Exp 9 [3] | Average Fold loss in potency relative to 292.12.3.1, BAF-3(hIL-31R) proliferation assay [4] | Average Potency (IC50), inhibition of hIL-31-induced proliferation of BAF-3(hIL-31R) cells [4] | Relative potency loss (kd) [1] | IC50, IL-31-induced STAT3 phosphorylation in NHK, Exp 6 [3] | IC50, IL-31-induced STAT3 phosphorylation in NHK, Exp 7 [3] |
| --- | --- | --- | --- | --- | --- | --- | --- | --- | --- | --- | --- |
| B1 | ~0.4 x to parent | 0.68 nM | 7e-05 s⁻¹ | 100000 M⁻¹ s⁻¹ | 7.84 nM | 6.93 nM | 5.8 fold | 9.3 nM | – | – | – |
| B2 | ~10 x to parent | 24 nM | 0.003 s⁻¹ | 120000 M⁻¹ s⁻¹ | – | – | 99.1 fold | 109 nM | ~50 x to parent | 46.5 nM | 211 nM |
| B3 | – | 2.1 nM | 9e-05 s⁻¹ | 43000 M⁻¹ s⁻¹ | 6.59 nM | 7.1 nM | 15.1 fold | 28.5 nM | ~1.5 x to parent | 3.25 nM | 7.37 nM |
| B4 | ~0.5 x to parent | 1.2 nM | 7.5e-05 s⁻¹ | 61000 M⁻¹ s⁻¹ | – | – | 9.8 fold | 10.6 nM | – | 3.84 nM | 6.22 nM |
| B5 | ~0.5 x to parent | 0.85 nM | 7.2e-05 s⁻¹ | 85000 M⁻¹ s⁻¹ | 5.85 nM | 7.28 nM | 16.5 fold | 26.3 nM | – | – | – |
| B6 | ~0.5 x to parent | 0.8 nM | 7.9e-05 s⁻¹ | 98000 M⁻¹ s⁻¹ | 3.42 nM | 9.59 nM | 18.7 fold | 29.1 nM | ~1.3 x to parent | – | – |
| B7 | ~0.5 x to parent | 1.1 nM | 9e-05 s⁻¹ | 78000 M⁻¹ s⁻¹ | 14.8 nM | 8.71 nM | 37.1 fold | 57.8 nM | ~1.5 x to parent | – | – |
| B8 | ~0.5 x to parent | 0.99 nM | 8.98e-05 s⁻¹ | 90000 M⁻¹ s⁻¹ | 4.49 nM | 5.37 nM | 8.3 fold | 12.9 nM | ~1.5 x to parent | – | – |
| B9 | ~0.25 x to parent | 0.46 nM | 5.6e-05 s⁻¹ | 120000 M⁻¹ s⁻¹ | 10.5 nM | 5.95 nM | 17.1 fold | 26.4 nM | – | – | – |
| B10 | ~0.4 x to parent | 0.77 nM | 7e-05 s⁻¹ | 92000 M⁻¹ s⁻¹ | 11 nM | 7.82 nM | 25.1 fold | 32.4 nM | – | – | – |
| B11 | ~0.3 x to parent | 0.64 nM | 5.9e-05 s⁻¹ | 93000 M⁻¹ s⁻¹ | 11.5 nM | 6.43 nM | 14.7 fold | 18.9 nM | – | – | – |
| B12 | ~0.4 x to parent | 0.9 nM | 6.5e-05 s⁻¹ | 70000 M⁻¹ s⁻¹ | – | – | 5.2 fold | 5.9 nM | – | 6.65 nM | 5.29 nM |
| B13 | ~0.5 x to parent | 1.13 nM | 6.2e-05 s⁻¹ | 55000 M⁻¹ s⁻¹ | – | – | 5.9 fold | 8.1 nM | – | 2.6 nM | 2.68 nM |
